In IntAct's records for PubMed 12670962:

B1: Cell division inhibitor SulA (Escherichia coli (strain K12)), P0AFZ5 (parent)
chain: MYTSGYAHRSSSFSSAASKIARVSTENTTAGLISEVVYREDQPMMTQLLLLPLLQQLGQQSRWQLWLTPQQKLSREWVQASGLPLTKVMQISQLSPCHTVESMVRALRTGNYSVVIGWLADDLTEEEHAELVDAANEGNAMGFIMRPVSASSHATRQLSGLKIHSNLYH

Variants of: B1
Conditions: with hslu_ecoli hslU

| effect of a mutation on the interaction | Variant |
| --- | --- |
| increasing interaction | MYTSGYAHRSSSFSSAASKIARVSTENTTAGLISEVVYREDQPMMTQLLLLPLLQQLGQQSRWQLWLTPQQKLSREWVQASGLPLTKVIQISQLSPCHTVESMVRALRTGNYSVVIGWLADDLTEEEHAELVDAANEGNAMGFIMRPVSASSHATRQLSGLKIHSNLYH |
| disrupting interaction | MYTSGYAHRSSSFSSAASKIARVSTENTTAGLISEVVYREDQPMMTQLLLLPLLQQFGQQSRWQLWLTPQQKLSREWVQASGLPLTKVMQISQLSPCHTVESMVRALRTGNYSVVIGWLADDLTEEEHAELVDAANEGNAMGFIMRPVSASSHATRQLSGLKIHSNLYH |
